In a protein production outcome set (Wang et al. 2014):

Assay: label from the status in PepcDB records
With “MSAEQDKEPIALKRVRGGDSGLDGLGGPNIQLGSPDKKKRKANTQGSSFPPLSEYAPPPNPNSDHLVAANPFDDSYNTISYKPLPSSNPYLGPGYPGFGGYSTFRMPPHVPPRMSSPYCGPYSLRNQPHPFPQNPLGMGFNRPHAFNFGPHDNSNFGNPPYNNVLTQDINMPGQHFRQGSAENFSQIPPQNVGQVSNPDLASNFAPGNNSNFTSPLETNHSFIPPPNAFGQAKAPLPKQDFTQGATKTPNQNSSTHPPHLNMEDPVNQSNVELKNVNRNNVVQENSRSGSAEATNNHANGTQNKPRQPRGAADLCTPDKSRKFSLLPSRHGHSSSDPVYPCGICTNEVNDDQDAILCEASCQKWFHRICTGMTETAYGLLTAEASAVWGCDTCMADKDVQLMRTREAFGPPAVGGDA” the protein production was “not failed”. In the case of “MSAFINQAAACAGDHAPRSAAQEARRGLRASLPVLLGFIPFALVLGAQATQKGLSVMEVPLMTGLNFGGGSEFTAIRLWTSPPHLLLIAAMSLLVNSRHLLMGAALAPYLRHVPRRRALAALFFMCDESWALALADAQSRATGRISLGYYLGVSAGLYLTWVVFTAIGAALGPVIGDVERYGFDMAFTAVFLVLLRGMWRGLRASRPWLASLAAAALTYRLMPDGAWYVAAGALAGLACAALTVPKEARA”, the protein production is reported as “failed”. With “MSAKIKIIPFGGVRENGKNMYAVDVNGGIYILDCGLKYPENELLGIDVVIPDWTYLRENKDRIVAVFLTHGHADAIGALPYFLSEFNVPVFGSEMTIALAKINVADEPKIKKFDDFHVIDEKTEIDFGDVVVSFFSTTHSIPESLGIDLKTDEGQIIYTGDFKFDQTAKPGYQTDYARLGAIGQAGVLALLSDSANAENPAMNASEQSLAESIEETFHYRDSRVIVACVASNILRIQQVFDAAAKTGRKVCLTGKDLEKIVNTAMELGKLTFDADLLVTTDQLDDLAPNEIVILQTGKMGEPIKAIQRMANKQEKDFNIQAGDLVYITTTPSHAMDTTVAQTRDMVYRAGGEVKAISDELNSSGHAYKRDLQLMLNLMKPKFLIPIQGEYRLLNAHADAAMELGIPADHIFILSKGDVLTYAQGDMGLGEGIDVSDTMIDGIGVGDIGNIVLRDRKVLADDGIFIAVVTIDRKKKQIVADPKITSRGFVYVKANKDLMQESSQIIRKAVQNNLDNKEFDWGHLKQDVREHLSHYLFEQTHRRPVILPVIMEVNQHHRRTTKEKPGAGATNEKPVTKSAPKAKAEQTAKPTHKPRRNRKRRPTKKTTTDNA” the protein production was “failed”. For “MSALPSYTQNGQTITFAFAQPLQLTIVTPEIIRVFINRGEQGESYAIEGHKIQATDFTIESAGDHYIIRTSALTIHLDSERHLDTFDKDGNALITLEHHHHHH”, the protein production was “not failed”. For “MSALRTIGALTAREMLKFVRDRSRVLGALAQPLALWLLLGLGFQNTFQPPQGSVGGSYGAFLLPGILALVLLFTAIFSTISIVEERTSGFLQAVLVAPTPRTALVFGTTLGGTLLATVQALLFLGALPLIDLSPGVAGVGMIVAVCLLTGLAFTALGFAIAWRMETTRGFHAVMNLFLLPLWFLSGAMFPVDGAAPVLQVVMWGNPVSYAVSGLRHGFHGFAGTPAALAGPGVCLAVTGAFAVLMTGLAVWQVRRPFFQT”, the protein production was “failed”. With “MSANDSAVNESCHCGGCGSSGNGKFLNETPMLDQLESGPWPSFISGFKALAERTEKPMLRGVLDQLEYSYKTKMGYWKGGLVTVDGYGAGIITRYSMIKDKFPEAAEFHTMRIQPAPGLHYNTTMLRELCDIWEKYGSGIITLHGQTGDIMLQGIEQDKVQACFDELNQKGWDLGGAGAGMRTGVSCIGPGRCDNACYDNLKLHLEALKHFSPQVHRPEWNYKLKFKFSGCPNDCTNAIMRSDLAVIGTWRDSIQIDHDEVKAWIAEKGVDALVNNVINRCPTKAIRLQDGDIDISTRDCVRCMHCINAMSKALSPGKDKGIALLIGGKNTLKVGVNMGSLIVPFMKMETDEDREAFIELIEEIIDWWDDAGLDHERIGETIERVGLKQFLDGVGIEYDINQISRPRDNPYFKAKY” the protein production was “failed”. With “MSAPLPLCVIGAGCVGMRHVEVARRSPQIRLTAVVEPVETRRRALAESGLVAVATLEEVPRETRAAIVATPTPDHLATGLAALSRGWAVLVEKPTAGTMDDARVLLGAADRAGLPLYVGHHRRCHPFSRAAREALGGIGDLVGLQGLWSLRKHDSYYAEDWRRQAGAGPLMTNLSHEIDLLRFLVGDMVEVSALTSSARRGLVVPDTAALAFRFADGALGSFLISDAGASPWSFEAACAENPAIAVSGQDYIRITGTAGALEFPSLTRWGRSAPGEIEWSKPLARAAGAGFARVDPLLEQINRFAAVLEGAQDDVLCTGTDGNAALEMTLAAALSGKLGRPVRAHEVPGDYSGI” the protein production was “failed”. In the case of “MSAPQVWPWTNQTPPLKGDPTPEPKPQERPTRLKHPLDAPHSVYGVDKWGKGLIVVTEEGEIGLKNPLRPEADAVSLPGILHDLEQRGIRAPMILRISSYLENEICHINDSFADAIARSGYKGAYRGVFPIKVNQQAQVIDRIVEFGHRYSYGLEAGSKPELVIALAHKLATDALIVCNGVKDAEFVRLAILSRKLGFNTVIVLESPKEADTVIAVYEELGIEPLLGVRVKLTNQISGKWEESSGDRSSFGMNTDQLVRVVDKLRDAGLIHCLKLQHSHLGSQVPDVNDVRRAVGEACRYFTELSAEGVPLTHLDLGGGMGVDYTGEKRATENSINYTVEEYCANVVETVAYAMDEAGIDHPTIVTESGRAVVATSSLLVFNVLESTLYDAPTAPGTEPDDHHLVSDLAAVNGYLTPARLQECWNDATFYRNELRALFRRGYVDLRQMARAERIYLSLMARIKTMVAEVEAETDLDAQMEKIADIYHCNFSLFQSLPDVWAIDQLHPIVPLQMLNEAPDRRAVLSDITCDSDGKVDRFILADGVSPSLPVHSLPEDQDYYLGVFFVGAYQETLGDLHNLFGDTNVVTIDLRADGGFDLLHEQEGDTISEVLSYVEYDPADCVAAFRKLVDGAISNGCLKASERKLIIGAYRDSINGYTYYE”, the protein production is reported as “failed”. For “MSAQEPWTAATAKGTALKNTTLLKALTIGILSILALIPLGIIMDLTSDREMLYHSVVEEIGRSWGEQQTLSGPALVIPYRYFVMEEEVSNDGKTRREVKRTYQDELVILPKKLALDLDLKHDFRTRGIYQSLVYSAALKGQADFSLNSYDIPNLIALDNKNARLVFGVSSNQAIDKVEKIEIKGDSALLSGSLMSGTGLTTGGLEKGFNQGIQVSEASDFSVNFAMTLRGSQSISALPLGEQTLINIQADWPHPSFKGLLPAEREINAKGFTASWNISHLTRNYPQEFVKSNQSTLTEVVANAILFEPVTHYGKIDRSVKYGLLFIVLTFIMLFIFELGQKTSLSIVQYILVGSAMALFYLLLLSLSEHLAFLQAYLIAACIPVLSVSTYVGSATASLKRGVIVGTMLVSLYAVLYSILQLEDYALLMGTGLLVVVLLILMFVTRHQSKNTAQ”, the protein production was “not failed”. For “MSARSLYQDTAVAALRDDLALALCAAAHHGLGEGVCNHFSVALPGQAGAFLLNPRGLMWSEVRAEDIVLVDAAGNKLAGRHEVEPTAMFIHAAIHQVAGKACVLHTHMPYATALTLTEARMLDTTLSQNAMRFHGRVAADRRYNGLALDAAEGERIARAMDGADIAFLGNHGVVVCGERIDYAFDDLYYLERACCAQVLAESSGRPLVPLDAALAASVAGQARSERLQSTLFFEALRRALGLEHHHHHH”, the protein production was “failed”. For “MSASAHIAQPDTRQQSRSDTPQAVAALAGRVLLSAIFLLSGVSKLAAPAMMIGYIGSVGLPFPQLALALAVIVEIGGGLALVAGWRTRTVAALLALFSVVTALAFHNALGDQNQFIHFFKNLAMAGGLLQVVAFGAGRFSLDARRR”, the protein production was “failed”. For “MSAVKSVSSFRLASLLRRENDPSAAMKLFRNPDPESTNPKRPFRYSLLCYDIIITKLGGSKMFDELDQVLLHLKTDTRIVPTEIIFCNVINFFGRGKLPSRALHMFDEMPQYRCQRTVKSLNSLLSALLKCGELEKMKERLSSIDEFGKPDACTYNILIHGCSQSGCFDDALKLFDEMVKKKVKPTGVTFGTLIHGLCKDSRVKEALKMKHDMLKVYGVRPTVHIYASLIKALCQIGELSFAFKLKDEAYEGKIKVDAAIYSTLISSLIKAGRSNEVSMILEEMSEKGCKPDTVTYNVLINGFCVENDSESANRVLDEMVEKGLKPDVISYNMILGVFFRIKKWEEATYLFEDMPRRGCSPDTLSYRIVFDGLCEGLQFEEAAVILDEMLFKGYKPRRDRLEGFLQKLCESGKLEILSKVISSLHRGIAGDADVWSVMIPTMCKEPVISDSIDLLLNTVKEDGPLSAMPQC”, the protein production was “failed”. With “MSAVVAQTLHVFGLRSHVANNIFYFDEQIIIFPSGNHCVKYNVDQKWQKFIPGSEKSQGMLALSISPNRRYLAISETVQEKPAITIYELSSIPCRKRKVLNNFDFQVQKFISMAFSPDSKYLLAQTSPPESNLVYWLWEKQKVMAIVRIDTQNNPVYQVSFSPQDNTQVCVTGNGMFKLLRFAEGTLKQTSFQRGEPQNYLAHTWVADDKIVVGTDTGKLFLFESGDQRWETSIMVKEPTNGSKSLDVIQESESLIEFPPVSSPLPSYEQMVAASSHSQMSMPQVFAIAAYSKGFACSAGPGRVLLFEKMEEKDFYRESREIRIPVDPQSNDPSQSDKQDVLCLCFSPSEETLVASTSKNQLYSITMSLTEISKGEPAHFEYLMYPLHSAPITGLATCIRKPLIATCSLDRSIRLWNYETNTLELFKEYQEEAYSISLHPSGHFIVVGFADKLRLMNLLIDDIRSFKEYSVRGCGECSFSNGGHLFAAVNGNVIHVYTTTSLENISSLKGHTGKIRSIVWNADDSKLISGGTDGAVYEWNLSTGKRETECVLKSCSYNCVTVSPDAKIIFAVGSDHTLKEIADSLILREISAFDVTYTAIVISHSGRMMFVGTSVGTIRAMKYPLPLQKEFNEYQAHAGPITKVSRTLSPGTQSHTCLLRALFIPSTSQCLFSLLLLSYLFIHHSLNHHLLTMNILFV” the protein production was “failed”. In the case of “MSAWTMSDPYPATEAHAQRAAKSSPKSLLDRLLSLVRREPEDREGIKAILEAAHERELLDAESYAMIKGALAVSERTVADIMVPRSRMDLLDISQPLPQLLATIIETAHSRFPVYEDDRDNIIGILLAKDLLRYMLEPALDIRSLVRPAVFIPEVKRLNVLLREFRASRNHLAIVIDEHGGISGLVTMEDVLEQIVGDIEDEFDEDEEESIFPEGENQWRLTASTDISHFNATFATDLPDDEYDSVGGWLGGQLGRIPRRGDSADHDGLHIEVVRADARRALWLRVRRNAGAQPPASAAE”, the protein production is reported as “not failed”. With “MSCGYTGPINEQNKENIKRAIAMHAAARRTRMLQQLREGLQLYRLVDIMEKNKEVCRSHFVFEGGNDQVDSQYIVSHLDPKMSESGTLKHSKEMQILNNFQDFLMELEDGGPEDEEALCVSKVMQWLSGQAHVHLLLSERQAFKITVLFDHTCMERMPDHRICYPVDSAWTQTITFPTAHSTSLNQFKENMRIAVQQGAYFYRV” the protein production was “failed”. In the case of “MSDAAEIRMDAGALNAFLHRAFPEVDPEQMPQVLEVEAGRALLKLPYASRQLRPGGVISGPTMMSLADTAAYAMILARIGEVALSVTTSLNIHFLRGCKPGDLYAEATLLKLGRRIATVDVLMWTQGRERAAAKATVAYAIP”, the protein production is reported as “failed”. With “MSDAHKSDLYLVLVTLLAAIGWMLSKEAVLMMPPLMFMAARFLIAGAFLALLALPSLLRLSRDQILRSLGVGFVFGIAMTCWIMGLYHTDSMGEGAFLTSLGVVIVPIIARTVFGEQQPLSTWLAIPIAVAGLALLSLENGFRPDPGQLYFVLAATIFALYFTLNTRAANQRIVVDKQGKTVEKKKVPALPLTAIALLTVGTVTLAESAISERWTHILTNPEPMLYVWVLASALIATAARFLLQTYAQSLSVNSHGVVILVLEPVWVAVFAVAWFGETMTLLQIAGCALIFAALLVNRWNALSRAIKALMKAKNPRQRG” the protein production was “failed”. With “MSDAPTVVAYLGPAGTFTEEALYKFADAGVFGDGEIEQLPAKSPQEAVDAVRHGTAQFAVVAIENFVDGPVTPTFDALDQGSNVQIIAEEELDIAFSIMVRPGTSLADVKTLATHPVGYQQVKNWMATTIPDAMYLSASSNGAGAQMVAEGTADAAAAPSRAAELFGLERLVDDVADVRGARTRFVAVQAQAAVSEPTGHDRTSVIFSLPNVPGSLVRALNEFAIRGVDLTRIESRPTRKVFGTYRFHLDISGHIRDIPVAEALRALHLQAEELVFVGSWPSNRAEDSTPQTDQLAKLHKADEWVRAASEGRKLN” the protein production was “not failed”.
